Paper PMC10397247
One block for each binder: values may come before it.

Tests used:
Assay in all cases: two-hybrid library CCmax;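 note: natural log of median RNA to DNA barcode read ratio; higher means stronger binding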
[1] = biological target: T1, 4H1636-AA; conditions: mean of both orientations
T1 chain: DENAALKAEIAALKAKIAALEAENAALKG

[2] = biological target: T2, 4H2575-AA; conditions: mean of both orientations
T2 chain: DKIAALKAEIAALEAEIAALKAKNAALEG

[3] = biological target: T3, 4H1401-AA; conditions: mean of both orientations
T3 chain: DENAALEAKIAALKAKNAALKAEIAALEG

[4] = biological target: T4, 4H3427-AA; conditions: mean of both orientations
T4 chain: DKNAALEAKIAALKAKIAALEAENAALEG

[5] = biological target: T5, 4H678-AA; conditions: mean of both orientations
T5 chain: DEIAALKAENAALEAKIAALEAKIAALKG

[6] = biological target: T6, 4H1324-AA; conditions: mean of both orientations
T6 chain: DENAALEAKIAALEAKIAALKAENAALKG

[7] = biological target: T7, 4H2837-AA; conditions: mean of both orientations
T7 chain: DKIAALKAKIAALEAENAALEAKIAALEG

[8] = biological target: T8, 4H2078-AA; conditions: mean of both orientations
T8 chain: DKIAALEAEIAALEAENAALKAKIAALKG

[9] = biological target: T9, 4H1867-AA; conditions: mean of both orientations
T9 chain: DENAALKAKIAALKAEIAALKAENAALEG

[10] = biological target: T10, 4H794-AA; conditions: mean of both orientations
T10 chain: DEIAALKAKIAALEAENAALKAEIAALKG

[11] = biological target: T11, 4H3921-AA; conditions: mean of both orientations
T11 chain: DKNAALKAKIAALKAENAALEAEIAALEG

[12] = biological target: T12, 4H342-AA; conditions: mean of both orientations
T12 chain: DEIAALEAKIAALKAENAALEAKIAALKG

[13] = biological target: T13, 4H3343-AA; conditions: mean of both orientations
T13 chain: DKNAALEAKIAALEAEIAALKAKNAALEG

[14] = biological target: T14, 4H3112-AA; conditions: mean of both orientations
T14 chain: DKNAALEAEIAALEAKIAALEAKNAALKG

[15] = biological target: T15, 4H2466-AA; conditions: mean of both orientations
T15 chain: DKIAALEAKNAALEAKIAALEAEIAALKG

[16] = biological target: T16, 4H234-AA; conditions: mean of both orientations
T16 chain: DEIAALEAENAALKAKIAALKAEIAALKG

[17] = biological target: T17, 4H317-AA; conditions: mean of both orientations
T17 chain: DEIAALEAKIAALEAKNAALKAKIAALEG

[18] = biological target: T18, 4H2754-AA; conditions: mean of both orientations
T18 chain: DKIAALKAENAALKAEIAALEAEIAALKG

[19] = biological target: T19, 4H605-AA; conditions: mean of both orientations
T19 chain: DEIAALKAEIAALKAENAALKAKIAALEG

[20] = biological target: T20, 4H881-AA; conditions: mean of both orientations
T20 chain: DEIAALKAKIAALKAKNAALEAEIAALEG

[21] = biological target: T21, 4H2642-AA; conditions: mean of both orientations
T21 chain: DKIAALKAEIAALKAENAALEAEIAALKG

[22] = biological target: T22, 4H2729-AA; conditions: mean of both orientations
T22 chain: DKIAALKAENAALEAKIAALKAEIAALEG

[23] = biological target: T23, 4H2277-AA; conditions: mean of both orientations
T23 chain: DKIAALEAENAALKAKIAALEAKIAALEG

[24] = biological target: T24, 4H1552-AA; conditions: mean of both orientations
T24 chain: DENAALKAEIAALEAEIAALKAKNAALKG

[25] = biological target: T25, 4H2165-AA; conditions: mean of both orientations
T25 chain: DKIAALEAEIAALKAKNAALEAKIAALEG

[26] = biological target: T26, 4H3655-AA; conditions: mean of both orientations
T26 chain: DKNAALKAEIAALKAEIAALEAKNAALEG

[27] = biological target: T27, 4H2949-AA; conditions: mean of both orientations
T27 chain: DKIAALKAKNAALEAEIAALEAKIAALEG

[28] = biological target: T28, 4H2505-AA; conditions: mean of both orientations
T28 chain: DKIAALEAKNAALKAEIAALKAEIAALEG

[29] = biological target: T29, 4H429-AA
T29 chain: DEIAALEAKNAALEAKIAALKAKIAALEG

[30] = biological target: T30, 4H2354-AA; conditions: mean of both orientations
T30 chain: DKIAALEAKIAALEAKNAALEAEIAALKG

[31] = biological target: T31, 4H2944-AA; conditions: mean of both orientations
T31 chain: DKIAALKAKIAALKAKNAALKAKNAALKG

[32] = biological target: T32, 4H335-AA; conditions: mean of both orientations
T32 chain: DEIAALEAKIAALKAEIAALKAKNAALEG

[33] = biological target: T33, 4H3606-AA; conditions: mean of both orientations
T33 chain: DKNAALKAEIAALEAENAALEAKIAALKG

[34] = biological target: T34, 4H454-AA; conditions: mean of both orientations
T34 chain: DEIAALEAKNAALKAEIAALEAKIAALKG

[35] = biological target: T35, 4H3844-AA; conditions: mean of both orientations
T35 chain: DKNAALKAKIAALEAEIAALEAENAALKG

[36] = biological target: T36, 4H48-AA
T36 chain: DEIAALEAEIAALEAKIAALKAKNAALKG

[37] = biological target: T37, 4H906-AA; conditions: mean of both orientations
T37 chain: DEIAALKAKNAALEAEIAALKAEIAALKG

[38] = biological target: T38, 4H717-AA; conditions: mean of both orientations
T38 chain: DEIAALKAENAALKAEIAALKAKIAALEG

[39] = biological target: T39, 4H1352-AA; conditions: mean of both orientations
T39 chain: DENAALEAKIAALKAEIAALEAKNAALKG

[40] = biological target: T40, 4H122-AA
T40 chain: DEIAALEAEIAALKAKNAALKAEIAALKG

[41] = biological target: T41, 4H993-AA; conditions: mean of both orientations
T41 chain: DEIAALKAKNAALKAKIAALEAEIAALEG

[42] = biological target: T42, 4H2617-AA; conditions: mean of both orientations
T42 chain: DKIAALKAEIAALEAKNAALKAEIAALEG

[43] = biological target: T43, 4H2393-AA; conditions: mean of both orientations
T43 chain: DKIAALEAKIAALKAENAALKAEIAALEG

[44] = biological target: T44, 4H2151-AA; conditions: mean of both orientations
T44 chain: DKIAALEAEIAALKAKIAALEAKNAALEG

[45] = biological target: T45, 4H566-AA; conditions: mean of both orientations
T45 chain: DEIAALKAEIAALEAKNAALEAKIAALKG

[46] = biological target: T46, 4H3627-AA; conditions: mean of both orientations
T46 chain: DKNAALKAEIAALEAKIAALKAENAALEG

[47] = biological target: T47, 4H2190-AA; conditions: mean of both orientations
T47 chain: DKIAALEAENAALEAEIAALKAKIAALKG

[48] = biological target: T48, 4H2883-AA; conditions: mean of both orientations
T48 chain: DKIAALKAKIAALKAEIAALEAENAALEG

[49] = biological target: T49, 4H780-AA; conditions: mean of both orientations
T49 chain: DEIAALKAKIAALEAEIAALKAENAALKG

[50] = biological target: T50, 4H3340-AA; conditions: mean of both orientations
T50 chain: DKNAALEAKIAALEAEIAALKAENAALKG

[51] = biological target: T51, 4H3001-AA; conditions: mean of both orientations
T51 chain: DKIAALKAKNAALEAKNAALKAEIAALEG

[52] = biological target: T52, 4H2611-AA; conditions: mean of both orientations
T52 chain: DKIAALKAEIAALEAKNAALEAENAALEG

[53] = biological target: T53, 4H688-AA; conditions: mean of both orientations
T53 chain: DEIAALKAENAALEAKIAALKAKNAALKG

[54] = biological target: T54, 4H3381-AA; conditions: mean of both orientations
T54 chain: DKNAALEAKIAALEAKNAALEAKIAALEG

[55] = biological target: T55, 4H2504-AA; conditions: mean of both orientations
T55 chain: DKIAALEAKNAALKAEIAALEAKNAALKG

[56] = biological target: T56, 4H406-AA; conditions: mean of both orientations
T56 chain: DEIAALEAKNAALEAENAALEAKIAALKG

[57] = biological target: T57, 4H2592-AA; conditions: mean of both orientations
T57 chain: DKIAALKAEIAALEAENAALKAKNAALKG

[58] = biological target: T58, 4H2219-AA
T58 chain: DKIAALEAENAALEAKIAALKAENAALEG

[59] = biological target: T59, 4H963-AA; conditions: mean of both orientations
T59 chain: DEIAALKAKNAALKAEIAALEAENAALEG

[60] = biological target: T60, 4H347-AA; conditions: mean of both orientations
T60 chain: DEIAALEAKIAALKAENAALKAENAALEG

[61] = biological target: T61, 4H2774-AA; conditions: mean of both orientations
T61 chain: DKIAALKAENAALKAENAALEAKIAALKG

[62] = biological target: T62, 4H376-AA; conditions: mean of both orientations
T62 chain: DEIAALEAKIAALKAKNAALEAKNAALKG

[63] = biological target: T63, 4H249-AA; conditions: mean of both orientations
T63 chain: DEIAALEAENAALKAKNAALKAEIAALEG

[64] = biological target: T64, 4H3493-AA
T64 chain: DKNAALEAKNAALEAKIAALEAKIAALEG

interaction score [1]: -1.44 | interaction score [2]: -0.393 | interaction score [3]: -1.2 | interaction score [4]: -0.449 | interaction score [5]: 1.05 | interaction score [6]: -1.09 | interaction score [7]: 2.11 | interaction score [8]: 2.3 | interaction score [9]: 1.01 | interaction score [10]: 1.48 | interaction score [11]: 2.16 | interaction score [12]: 1.76 | interaction score [13]: -1.31 | interaction score [14]: -0.199 | interaction score [15]: 0.13 | interaction score [16]: -1.28 | interaction score [17]: -1.2 | interaction score [18]: 0.606 | interaction score [19]: 0.129 | interaction score [20]: 1.43 | interaction score [21]: 1.83 | interaction score [22]: 0.657 | interaction score [23]: -1.29 | interaction score [24]: -1.07 | interaction score [25]: -0.0868 | interaction score [26]: -1.14 | interaction score [27]: -0.323 | interaction score [28]: -1.39 | interaction score [29]: -0.548 | interaction score [30]: 0.207 | interaction score [31]: -1.12 | interaction score [32]: -1.07 | interaction score [33]: 2.36 | interaction score [34]: -0.403 | interaction score [35]: -0.909 | interaction score [36]: -0.383 | interaction score [37]: -1.43 | interaction score [38]: -1.17 | interaction score [39]: -1.3 | interaction score [40]: 1.61 | interaction score [41]: -1.48 | interaction score [42]: 1.96 | interaction score [43]: 1.93 | interaction score [44]: -1.58 | interaction score [45]: 1.5 | interaction score [46]: -1.12 | interaction score [47]: 1.57 | interaction score [48]: 0.209 | interaction score [49]: -1.74
B1: 4H122-AA (peptide)
chain: DEIAALEAEIAALKAKNAALKAEIAALKG

interaction score [50]: -1.39 | interaction score [51]: -0.483 | interaction score [52]: -1.33 | interaction score [53]: -0.493 | interaction score [54]: -1.13 | interaction score [55]: 2.21 | interaction score [56]: -1.81 | interaction score [57]: -0.491 | interaction score [58]: -1.21 | interaction score [59]: 0.45 | interaction score [60]: -1.36 | interaction score [61]: -0.727 | interaction score [62]: -1.64 | interaction score [63]: -1.35 | interaction score [64]: -1.56
B2: 4H2219-AA (peptide)
chain: DKIAALEAENAALEAKIAALKAENAALEG
